Measured values published in publication PMC2628355, “The inhibition of assembly of HIV-1 virus-like particles by 3-O-(3',3'-dimethylsuccinyl) betulinic acid (DSB) is counteracted by Vif and requires its Zinc-binding domain” (Virology Journal, 2008).

How the values were obtained:
[1] = target: VifsubCΔ170, triple mutant of HIV-1 Vif (subA+subB and deletion of the 23 C-terminal residues) (HIV-1); assay: SDS-PAGE and immunoblotting (dimer band); whole cell lysates or VLP of baculovirus-infected Sf9 cells on SDS-denaturing 12% polyacrylamide gels, blotted with anti-His or anti-Vif antibody; a band at twice the monomer's mass
[2] = target: the molecule itself; assay: as above

Molecule	stoichiometry N [1]	stoichiometry N [2]
VifsubCΔ170, triple mutant of HIV-1 Vif (subA+subB and deletion of the 23 C-terminal residues) (domain or fragment)	2	–
oligohistidine-tagged HIV-1 Vpr protein (natural protein, UniProt P69726 1-96, looked up, HIV-1 Vpr; also called His-tagged Vpr; source: Sf9 cells infected with recombinant baculovirus AcMNPV-Vpr (obtained from Eric Cohen); in cells and in extracellular VLP) MEQAPEDQGPQREPHNEWTLELLEELKNEAVRHFPRIWLHGLGQHIYETYGDTWAGVEAIIRILQQLLFIHFRIGCRHSRIGVTRQRRARNGASRS	–	2
